US20150056232A1

Target: TLR5

For “FliC180 protein of S. Typhimurium (Phase I FliC flagellar antigen with the ΔfliC180 deletion) (from UniProt P06179) (ligand)”, which NF-κB production (% higher than the FliC+ strain) is on record?
The NF-κB production (% higher than the FliC+ strain) was 50.
